Results published in ChEMBL document CHEMBL6127040, “Discovery and optimization of isoliquiritigenin as a death-associated protein kinase 1 inhibitor” (Eur J Med Chem, 2024).

How the values were obtained:
Settings in all cases: Homo sapiens; time 1.0 hrs
[1] = substrate: CCCc1cc(/C=C/C(=O)c2ccc(O)cc2O)ccc1O
[2] = substrate: O=C(/C=C/c1ccc(O)c(O)c1)c1ccc(O)cc1O
[3] = substrate: O=C(/C=C/c1ccc(O)cc1)c1ccc(O)cc1O
[4] = substrate: C=CCc1cc(/C=C/C(=O)c2ccc(O)cc2O)ccc1O
[5] = substrate: COc1cc(/C=C/C(=O)c2ccc(O)cc2O)ccc1O
[6] = substrate: Cc1cc(O)ccc1/C=C/C(=O)c1ccc(O)cc1O
[7] = substrate: CCCc1cc(/C=C/C(=O)c2ccc(O)cc2O)ccc1O; remark: listed apart in the source
[8] = substrate: O=C(/C=C/c1ccc(O)c(O)c1)c1ccc(O)cc1O; remark: listed apart in the source
[9] = substrate: O=C(/C=C/c1ccc(O)cc1)c1ccc(O)cc1O; remark: listed apart in the source
[10] = substrate: C=CCc1cc(/C=C/C(=O)c2ccc(O)cc2O)ccc1O; remark: listed apart in the source
[11] = substrate: COc1cc(/C=C/C(=O)c2ccc(O)cc2O)ccc1O; remark: listed apart in the source
[12] = substrate: Cc1cc(O)ccc1/C=C/C(=O)c1ccc(O)cc1O; remark: listed apart in the source
[13] = substrate: CCCc1cc(/C=C/C(=O)c2ccc(O)cc2O)ccc1O; remark: listed apart in the source
Description: (§1) Binding affinity to DAPK1 (unknown origin) assessed as catalytic rate incubated for 1 hr in presence of ATP by malachite green assay (Rvb = 3.0 +/- 0.15 /min)

[14] = substrate: O=C(/C=C/c1ccc(O)c(O)c1)c1ccc(O)cc1O; remark: listed apart in the source
Description: as §1

[15] = substrate: O=C(/C=C/c1ccc(O)cc1)c1ccc(O)cc1O; remark: listed apart in the source
Description: as §1

[16] = substrate: C=CCc1cc(/C=C/C(=O)c2ccc(O)cc2O)ccc1O; remark: listed apart in the source
Description: as §1

[17] = substrate: COc1cc(/C=C/C(=O)c2ccc(O)cc2O)ccc1O; remark: listed apart in the source
Description: as §1

[18] = substrate: Cc1cc(O)ccc1/C=C/C(=O)c1ccc(O)cc1O; remark: listed apart in the source
Description: as §1

B1: Death-associated protein kinase 1 (Homo sapiens), P53355 (protein)
chain: MTVFRQENVDDYYDTGEELGSGQFAVVKKCREKSTGLQYAAKFIKKRRTKSSRRGVSREDIEREVSILKEIQHPNVITLHEVYENKTDVILILELVAGGELFDFLAEKESLTEEEATEFLKQILNGVYYLHSLQIAHFDLKPENIMLLDRNVPKPRIKIIDFGLAHKIDFGNEFKNIFGTPEFVAPEIVNYEPLGLEADMWSIGVITYILLSGASPFLGDTKQETLANVSAVNYEFEDEYFSNTSALAKDFIRRLLVKDPKKRMTIQDSLQHPWIKPKDTQQALSRKASAVNMEKFKKFAARKKWKQSVRLISLCQRLSRSFLSRSNMSVARSDDTLDEEDSFVMKAIIHAINDDNVPGLQHLLGSLSNYDVNQPNKHGTPPLLIAAGCGNIQILQLLIKRGSRIDVQDKGGSNAVYWAARHGHVDTLKFLSENKCPLDVKDKSGEMALHVAARYGHADVAQLLCSFGSNPNIQDKEEETPLHCAAWHGYYSVAKALCEAGCNVNIKNREGETPLLTASARGYHDIVECLAEHGADLNACDKDGHIALHLAVRRCQMEVIKTLLSQGCFVDYQDRHGNTPLHVACKDGNMPIVVALCEANCNLDISNKYGRTPLHLAANNGILDVVRYLCLMGASVEALTTDGKTAEDLARSEQHEHVAGLLARLRKDTHRGLFIQQLRPTQNLQPRIKLKLFGHSGSGKTTLVESLKCGLLRSFFRRRRPRLSSTNSSRFPPSPLASKPTVSVSINNLYPGCENVSVRSRSMMFEPGLTKGMLEVFVAPTHHPHCSADDQSTKAIDIQNAYLNGVGDFSVWEFSGNPVYFCCYDYFAANDPTSIHVVVFSLEEPYEIQLNQVIFWLSFLKSLVPVEEPIAFGGKLKNPLQVVLVATHADIMNVPRPAGGEFGYDKDTSLLKEIRNRFGNDLHISNKLFVLDAGASGSKDMKVLRNHLQEIRSQIVSVCPPMTHLCEKIISTLPSWRKLNGPNQLMSLQQFVYDVQDQLNPLASEEDLRRIAQQLHSTGEINIMQSETVQDVLLLDPRWLCTNVLGKLLSVETPRALHHYRGRYTVEDIQRLVPDSDVEELLQILDAMDICARDLSSGTMVDVPALIKTDNLHRSWADEEDEVMVYGGVRIVPVEHLTPFPCGIFHKVQVNLCRWIHQQSTEGDADIRLWVNGCKLANRGAELLVLLVNHGQGIEVQVRGLETEKIKCCLLLDSVCSTIENVMATTLPGLLTVKHYLSPQQLREHHEPVMIYQPRDFFRAQTLKETSLTNTMGGYKESFSSIMCFGCHDVYSQASLGMDIHASDLNLLTRRKLSRLLDPPDPLGKDWCLLAMNLGLPDLVAKYNTSNGAPKDFLPSPLHALLREWTTYPESTVGTLMSKLRELGRRDAADFLLKASSVFKINLDGNGQEAYASSCNSGTSYNSISSVVSR
Protein B1 has a Km [1] of 28 µM, a Km [2] of 60 µM and a Km [3] of 43 µM. It also gave a Km [4] of 21 µM, a Km [5] of 59 µM and a Km [6] of 48 µM. The kcat/Km [7] was 583 M⁻¹ s⁻¹, the kcat/Km [8] was 417 M⁻¹ s⁻¹ and the kcat/Km [9] was 600 M⁻¹ s⁻¹. For the same protein, the kcat/Km [10] was 1130 M⁻¹ s⁻¹, the kcat/Km [11] was 417 M⁻¹ s⁻¹ and the kcat/Km [12] was 650 M⁻¹ s⁻¹. For the same protein, the kcat [13] was 0.035 s⁻¹, the kcat [14] was 0.0367 s⁻¹ and the kcat [15] was 0.0483 s⁻¹. The kcat [16] was 0.025 s⁻¹, the kcat [17] was 0.0383 s⁻¹ and the kcat [18] was 0.0383 s⁻¹.
